Tests used:
[1] = biological target: the molecule itself; experiment: AUC; sedimentation velocity, van Holde–Weischet analysis; 7.5 μM Vps75 with 0, 0.5 and 1.0 equivalent of Rtt109; 20 mM Tris pH 7.5, 150 mM NaCl, 0.5 mM TCEP, 20°C
[2] = biological target: the molecule itself; experiment: AUC; sedimentation velocity, van Holde–Weischet analysis; 7.5 μM Vps75 with 0, 0.5 and 1.0 equivalent of Rtt109; 20 mM Tris pH 7.5, 300 mM NaCl, 0.5 mM TCEP, 20°C
[3] = biological target: T1, Xenopus laevis histones H3-H4 (wild type), refolded (Xenopus laevis, UniProt P84233 1-136; P62799 1-103); experiment: AUC; sedimentation velocity; 0.5 or 1 equivalent of H3-H4 or H3DM-H4 titrated against Vps75–Rtt109 reconstituted at 2:2 or 2:1 (relative to 7.5 μM Vps75), with 2:2 mixes of Vps75 and histones for reference; 20 mM Tris pH 7.5, 150 mM NaCl, 0.5 mM TCEP, 20°C; details: both partners purified
T1 construct: histone H3, Xenopus laevis, wild type; histone H4, Xenopus laevis; One H3-H4 dimer is the unit used for concentrations and equivalents; it can form the (H3-H4)2 tetramer; also called (H3-H4)2 tetramer; H3-H4 dimer; source: bought unfolded: the Histone Source at Colorado State University

[4] = biological target: the molecule itself; experiment: SEC-MALS; anion exchange peaks P1, P2, P3 of co-expressed, co-purified Vps75–Rtt109, 20 μM; Superdex 200 Increase 10/300 GL; 20 mM Tris–HCl pH 7.5, 300 mM NaCl, 0.5 mM TCEP

Row | Binder | stoichiometry N [1] | stoichiometry N [2] | binding result [3] | stoichiometry N [4]
1 | Vps75 (Saccharomyces cerevisiae), individually expressed and purified (natural protein, UniProt P53853 1-264, looked up, Vps75, histone chaperone, Saccharomyces cerevisiae; also called Vps75 dimer; Vps75 tetramer; source: individually expressed and purified as previously described (Park et al, 2008)) MMSDQENENEHAKAFLGLAKCEEEVDAIEREVELYRLNKMKPVYEKRDAYIDEIAEFWKIVLSQHVSFANYIRASDFKYIDTIDKIKVEWLALESEMYDTRDFSITFHFHGIEGDFKEQQVTKVFQIKKGKDDQEDGILTSEPVPIEWPQSYDSINPDLIKDKRSPEGKKKYRQGMKTIFGWFRWTGLKPGKEFPHGDSLASLFSEEIYPFCVKYYAEAQRDLEDEEGESGLSADGDSEDDDGSLGEVDLPLSDEEPSSKKRKV | 4 chains of Vps75 (tetramer) | 2 chains of Vps75 (dimer) | binds | –
2 | Vps75 co-expressed with his–Rtt109 from pRSFDuet-1 (natural protein, Saccharomyces cerevisiae, UniProt P53853 1-264, looked up, Vps75, Saccharomyces cerevisiae; multiple cloning site 2 of pRSFDuet-1; source: E. coli Rosetta (DE3) pLysS, co-expressed with his–Rtt109, in lysate; co-purified (HisTrap, MonoQ)) MMSDQENENEHAKAFLGLAKCEEEVDAIEREVELYRLNKMKPVYEKRDAYIDEIAEFWKIVLSQHVSFANYIRASDFKYIDTIDKIKVEWLALESEMYDTRDFSITFHFHGIEGDFKEQQVTKVFQIKKGKDDQEDGILTSEPVPIEWPQSYDSINPDLIKDKRSPEGKKKYRQGMKTIFGWFRWTGLKPGKEFPHGDSLASLFSEEIYPFCVKYYAEAQRDLEDEEGESGLSADGDSEDDDGSLGEVDLPLSDEEPSSKKRKV | – | – | – | 2 chains of Vps75 (dimer)
